What follows are substances tested against β-Klotho overexpressed in recombinant human 293T kidney cells (assay: cell-based or functional assay).

| Substance | EC50 (nM), ELK-luciferase [nM] | Efficacy, ELK-luciferase [%] |
| --- | --- | --- |
| hFc-(L15)-hFGF21(L98R, P171G, Y179P) (Fc fusion) | 428 | 44.4 |
| hFc-(L15)-hFGF21(1-178, L98R, P171G) (Fc fusion) | 167 | 63.9 |
| hFc-(L15)-hFGF21(L98R, P171G, S181P, P182) (Fc fusion) | 272 | 69.9 |
| hFc-(L15)-hFGF21(L98R, P171G, S181A) (Fc fusion) | 2.66 | 73.5 |
| hFc-(L15)-hFGF21(L98R, P171G, S181P) (Fc fusion) | 33.8 | 79.5 |
| hFc-(L15)-hFGF21(L98R, P171G, A180P) (Fc fusion) | 617 | 77.1 |
| hFc-(L15)-hFGF21(L98R, P171G, GGGGG182-6) (Fc fusion) | 4310 | 99.7 |
| MKEDD-hFGF21-(L15)-hFc (Fc fusion) | 834 | 83.1 |

The remaining lines, values ahead:

| EC50 (nM), ELK-luciferase [nM] | Efficacy, ELK-luciferase [%] | Substance |
| --- | --- | --- |
| 61 | 82.6 | hFc-(L15)-hFGF21(L98R, P171G, Y179G) (Fc fusion) |
| 7.8 | 77.4 | hFc-(L15)-hFGF21(L98R, P171G, 1-179) (Fc fusion) |
| 130 | 87.9 | hFc-(L15)-hFGF21(L98R, P171G, S181K) (Fc fusion) |
| 3.46 | 72.6 | hFc-(L15)-hFGF21(L98R, P171G, S181L) (Fc fusion) |
| 3.07 | 77.6 | hFc-(L15)-hFGF21(L98R, P171G, S181T) (Fc fusion) |
| 3.43 | 77.3 | hFc-(L15)-hFGF21(L98R, P171G, S181G) (Fc fusion) |
